Literature values as cited in paper PMC6163503.

Assays:
[1] = molecular target: JAK2 catalytic domain (Homo sapiens) (UniProt O60674); experiment: SPR
[2] = molecular target: Aminopeptidase N (Homo sapiens) (UniProt P15144)
UniProt P15144, sequence (P15144 2-967): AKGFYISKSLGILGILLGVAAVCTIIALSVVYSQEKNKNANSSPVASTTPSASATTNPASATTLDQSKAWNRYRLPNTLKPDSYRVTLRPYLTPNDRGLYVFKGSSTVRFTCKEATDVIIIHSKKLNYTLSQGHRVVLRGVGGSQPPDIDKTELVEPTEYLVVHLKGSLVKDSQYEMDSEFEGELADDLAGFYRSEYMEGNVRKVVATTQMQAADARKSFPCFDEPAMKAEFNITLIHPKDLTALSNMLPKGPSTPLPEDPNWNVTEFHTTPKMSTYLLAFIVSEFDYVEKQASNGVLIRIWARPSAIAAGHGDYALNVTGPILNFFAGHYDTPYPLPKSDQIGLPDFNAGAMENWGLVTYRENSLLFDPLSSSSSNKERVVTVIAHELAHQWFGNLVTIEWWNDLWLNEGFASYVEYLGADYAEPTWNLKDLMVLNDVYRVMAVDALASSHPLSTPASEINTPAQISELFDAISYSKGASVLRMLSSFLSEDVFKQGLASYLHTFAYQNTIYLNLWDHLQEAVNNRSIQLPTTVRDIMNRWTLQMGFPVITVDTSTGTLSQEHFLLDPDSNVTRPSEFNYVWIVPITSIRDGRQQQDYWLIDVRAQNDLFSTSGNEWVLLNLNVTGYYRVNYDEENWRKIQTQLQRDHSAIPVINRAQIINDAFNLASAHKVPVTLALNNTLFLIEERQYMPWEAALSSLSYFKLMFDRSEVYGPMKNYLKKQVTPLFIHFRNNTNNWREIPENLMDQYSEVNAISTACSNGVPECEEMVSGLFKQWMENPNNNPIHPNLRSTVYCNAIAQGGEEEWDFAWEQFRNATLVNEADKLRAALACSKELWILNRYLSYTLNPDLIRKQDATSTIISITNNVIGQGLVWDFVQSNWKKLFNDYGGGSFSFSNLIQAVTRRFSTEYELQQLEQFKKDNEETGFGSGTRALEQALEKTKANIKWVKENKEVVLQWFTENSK

UniProt O60674, sequence (O60674 849-1124): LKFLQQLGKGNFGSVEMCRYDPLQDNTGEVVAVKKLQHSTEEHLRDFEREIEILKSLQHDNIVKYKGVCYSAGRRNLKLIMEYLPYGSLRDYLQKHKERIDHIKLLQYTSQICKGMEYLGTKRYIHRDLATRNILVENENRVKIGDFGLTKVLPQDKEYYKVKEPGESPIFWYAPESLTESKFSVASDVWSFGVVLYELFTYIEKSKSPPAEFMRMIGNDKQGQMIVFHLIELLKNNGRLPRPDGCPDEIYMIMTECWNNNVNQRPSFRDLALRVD

| Kd [1] [µM] | Ki [2] [µM] | Substance |
| --- | --- | --- |
| > 1000 | – | SOCS3 ESS peptide ESS (from UniProt O14543) |
| 2.03 | – | SOCS3 KIR peptide KIR (from UniProt O14543) |
| 1.86 | – | SOCS3 KIRESS peptide KIRESS (from UniProt O14543) |
| – | 24.7 | cyc-LHSPW |
